B1: IgG1-F1134 (antibody)
heavy: QVQLQESGPGLVKPSETLSLTCAVSGHSISHDHAWSWVRQPPGEGLEWIGFISYSGITNYNPSLQGRVTISRDNSKNTLYLQMNSLRAEDTAVYYCARSLARTTAMDYWGEGTLVTVSSASTKGPSVFPLAPSSKSTSGGTAALGCLVKDYFPEPVTVSWNSGALTSGVHTFPAVLQSSGLYSLSSVVTVPSSSLGTQTYICNVNHKPSNTKVDKKVEPKSCDKTHTCPPCPAPELRGGPKVFLFPPKPKDTLYISRTPEVTCVVVDVSHEDPEVKFNWYVDGVEVHNAKTKPREEQYNSTYRVVSVLTVLHQDWLNGKEYKCKVSNKALPAPIEKTISKAKGQPREPQVYTLPPSRDELTKNQVSLTCLVKGFYPSDIAVEWESNGQPENNYKTTPPVLDSDGSFFLYSKLTVDKSRWQQGNVFSCSVMHEALHYHVTRKSLSLSP
light: not shown
notes: EU numbering; copies: 2 + 2
B2: IgG1-F1207 (antibody)
heavy: B1 heavy with R237L, K241S, Y254M, I334E, M430L, Y436S, V438Y, R440Q
light: not shown
notes: EU numbering; copies: 2 + 2
B3: IgG1-F1148 (antibody)
heavy: B1 heavy with T309Q, Q313A, V438Y, S442E
light: not shown
notes: EU numbering; copies: 2 + 2
B4: IgG1-F1195 (antibody)
heavy: B1 heavy with R237L, K241S, S442E, L443A
light: not shown
notes: EU numbering; copies: 2 + 2
B5: IgG1-F1208 (antibody)
heavy: B1 heavy with R237L, K241S, L253A, R440Q
light: not shown
notes: EU numbering; copies: 2 + 2
B6: IgG1-F1162 (antibody)
heavy: B1 heavy with R237L, P240D, K241S, T252Y, R440Q
light: not shown
notes: EU numbering; copies: 2 + 2
B7: IgG1-F1145 (antibody)
heavy: B1 heavy with R237L, K241S, T252V, T309Q, Q313A, S442E
light: not shown
notes: EU numbering; copies: 2 + 2
B8: IgG1-F1183 (antibody)
heavy: B1 heavy with R237L, K241S, Y254M, E382A, M430L, Y436S, V438Y, R440Q
light: not shown
notes: EU numbering; copies: 2 + 2
B9: IgG1-F1146 (antibody)
heavy: B1 heavy with T252V, T309Q, Q313A, S442E
light: not shown
notes: EU numbering; copies: 2 + 2
B10: IgG1-F1184 (antibody)
heavy: B1 heavy with R237L, K241S, Y254M, T309A, M430L, Y436S, V438Y, R440Q
light: not shown
notes: EU numbering; copies: 2 + 2
B11: IgG1-F1143 (antibody)
heavy: B1 heavy with V424S, S426R, S442E
light: not shown
notes: EU numbering; copies: 2 + 2
B12: IgG1-F1144 (antibody)
heavy: B1 heavy with T252V, T309Q, V310P, Q313A, S442E
light: not shown
notes: EU numbering; copies: 2 + 2
B13: IgG1-F1140 (antibody)
heavy: B1 heavy with R237L, K241S, V424E, S426R, S442E
light: not shown
notes: EU numbering; copies: 2 + 2
B14: IgG1-F1135 (antibody)
heavy: B1 heavy with R440Q, S442E
light: not shown
notes: EU numbering; copies: 2 + 2
B15: IgG1-F1141 (antibody)
heavy: B1 heavy with R237L, K241S, V424S, S426R, S442E
light: not shown
notes: EU numbering; copies: 2 + 2
B16: IgG1-F1197 (antibody)
heavy: B1 heavy with R237L, K241S, S256T, S442E
light: not shown
notes: EU numbering; copies: 2 + 2
B17: IgG1-F1203 (antibody)
heavy: B1 heavy with R237L, K241S, T258Q, S442E
light: not shown
notes: EU numbering; copies: 2 + 2
B18: IgG1-F1217 (antibody)
heavy: B1 heavy with R237L, K241S, L253T, R440Q
light: not shown
notes: EU numbering; copies: 2 + 2
B19: IgG1-F1191 (antibody)
heavy: B1 heavy with R237L, K241S, T439A, S442E
light: not shown
notes: EU numbering; copies: 2 + 2
B20: IgG1-F1154 (antibody)
heavy: B1 heavy with T252V, T309Q, V310P, Q313A, S426N, R440Q
light: not shown
notes: EU numbering; copies: 2 + 2
B21: IgG1-F1178 (antibody)
heavy: B1 heavy with R237L, K241S, Y254M, V261I, V310F, M430L, Y436N, V438Y, R440Q
light: not shown
notes: EU numbering; copies: 2 + 2
B22: IgG1-F1218 (antibody)
heavy: B1 heavy with R237L, K241S, L253V, R440Q
light: not shown
notes: EU numbering; copies: 2 + 2
B23: IgG1-F1151 (antibody)
heavy: B1 heavy with S426N, V438Y, R440Q
light: not shown
notes: EU numbering; copies: 2 + 2
B24: IgG1-F1161 (antibody)
heavy: B1 heavy with R237L, K241S, Y254M, I334V, S426N, V438Y, R440Q
light: not shown
notes: EU numbering; copies: 2 + 2
B25: IgG1-F1188 (antibody)
heavy: B1 heavy with R237L, K241S, Y254M, T309A, E382A, Y436H, V438Y, R440Q
light: not shown
notes: EU numbering; copies: 2 + 2
B26: IgG1-F1202 (antibody)
heavy: B1 heavy with R237L, K241S, T252V, S256T, T258E, S442E
light: not shown
notes: EU numbering; copies: 2 + 2
B27: IgG1-F1136 (antibody)
heavy: B1 heavy with V424E, S426R, R440Q
light: not shown
notes: EU numbering; copies: 2 + 2
B28: IgG1-F1196 (antibody)
heavy: B1 heavy with R237L, K241S, S442E, L443E
light: not shown
notes: EU numbering; copies: 2 + 2
B29: IgG1-F1165 (antibody)
heavy: B1 heavy with R237L, P240D, K241S, T252Y, T309Q, V310P, Q313A, R440Q
light: not shown
notes: EU numbering; copies: 2 + 2
B30: IgG1-F1198 (antibody)
heavy: B1 heavy with R237L, K241S, T258E, S442E
light: not shown
notes: EU numbering; copies: 2 + 2
B31: IgG1-F1199 (antibody)
heavy: B1 heavy with R237L, K241S, S256T, T258E, S442E
light: not shown
notes: EU numbering; copies: 2 + 2
B32: IgG1-F1139 (antibody)
heavy: B1 heavy with S426N, R440Q
light: not shown
notes: EU numbering; copies: 2 + 2
B33: IgG1-F1137 (antibody)
heavy: B1 heavy with V424S, S426R, R440Q
light: not shown
notes: EU numbering; copies: 2 + 2
B34: IgG1-F1163 (antibody)
heavy: B1 heavy with R237L, P240D, K241S, T252Y, T309Q, Q313A, V438Y, R440Q
light: not shown
notes: EU numbering; copies: 2 + 2
B35: IgG1-F1153 (antibody)
heavy: B1 heavy with T252V, T309Q, Q313A, S426N, R440Q
light: not shown
notes: EU numbering; copies: 2 + 2
B36: IgG1-F1194 (antibody)
heavy: B1 heavy with R237L, K241S, K441D, S442E
light: not shown
notes: EU numbering; copies: 2 + 2
B37: IgG1-F1152 (antibody)
heavy: B1 heavy with T309Q, Q313A, S426N, V438Y, R440Q
light: not shown
notes: EU numbering; copies: 2 + 2
B38: IgG1-F1185 (antibody)
heavy: B1 heavy with R237L, K241S, Y254M, T309A, E382A, M430L, Y436S, V438Y, R440Q
light: not shown
notes: EU numbering; copies: 2 + 2
B39: IgG1-F1138 (antibody)
heavy: B1 heavy with S442E
light: not shown
notes: EU numbering; copies: 2 + 2
B40: IgG1-F1206 (antibody)
heavy: B1 heavy with R237L, K241S, T252V, S256T, T258Q, S442E
light: not shown
notes: EU numbering; copies: 2 + 2
B41: IgG1-F1229 (antibody)
heavy: B1 heavy with R237L, K241S, I255V, R440Q
light: not shown
notes: EU numbering; copies: 2 + 2
B42: IgG1-F1205 (antibody)
heavy: B1 heavy with R237L, K241S, T252V, T258Q, S442E
light: not shown
notes: EU numbering; copies: 2 + 2
B43: IgG1-F1157 (antibody)
heavy: B1 heavy with R237L, K241S, V438Y, S442E
light: not shown
notes: EU numbering; copies: 2 + 2
B44: IgG1-F1147 (antibody)
heavy: B1 heavy with R237L, K241S, T309Q, Q313A, V438Y, S442E
light: not shown
notes: EU numbering; copies: 2 + 2
B45: IgG1-F1201 (antibody)
heavy: B1 heavy with R237L, K241S, T252V, T258E, S442E
light: not shown
notes: EU numbering; copies: 2 + 2
B46: IgG1-F1190 (antibody)
heavy: B1 heavy with R237L, K241S, H435E, S442E
light: not shown
notes: EU numbering; copies: 2 + 2
B47: IgG1-F1204 (antibody)
heavy: B1 heavy with R237L, K241S, S256T, T258Q, S442E
light: not shown
notes: EU numbering; copies: 2 + 2
B48: IgG1-F1230 (antibody)
heavy: B1 heavy with R237L, K241S, S442D
light: not shown
notes: EU numbering; copies: 2 + 2
B49: IgG1-F1200 (antibody)
heavy: B1 heavy with R237L, K241S, T252V, S256T, S442E
light: not shown
notes: EU numbering; copies: 2 + 2
B50: IgG1-F1231 (antibody)
heavy: B1 heavy with R237L, K241S, R440K, S442E
light: not shown
notes: EU numbering; copies: 2 + 2
B51: IgG1-F1160 (antibody)
heavy: B1 heavy with R237L, K241S, Y254M, V310F, S426N, V438Y, R440Q
light: not shown
notes: EU numbering; copies: 2 + 2
B52: IgG1-F1142 (antibody)
heavy: B1 heavy with V424E, S426R, S442E
light: not shown
notes: EU numbering; copies: 2 + 2
B53: IgG1-F1164 (antibody)
heavy: B1 heavy with R237L, P240D, K241S, T252Y, T309Q, Q313A, R440Q
light: not shown
notes: EU numbering; copies: 2 + 2
B54: IgG1-F1216 (antibody)
heavy: B1 heavy with R237L, K241S, L253S, R440Q
light: not shown
notes: EU numbering; copies: 2 + 2
B55: IgG1-F1158 (antibody)
heavy: B1 heavy with V438Y, S442E
light: not shown
notes: EU numbering; copies: 2 + 2

Positions count from the first letter of the chain named.

T1 sequence (chain, as listed by the source limits assumed, chain 1 of 2): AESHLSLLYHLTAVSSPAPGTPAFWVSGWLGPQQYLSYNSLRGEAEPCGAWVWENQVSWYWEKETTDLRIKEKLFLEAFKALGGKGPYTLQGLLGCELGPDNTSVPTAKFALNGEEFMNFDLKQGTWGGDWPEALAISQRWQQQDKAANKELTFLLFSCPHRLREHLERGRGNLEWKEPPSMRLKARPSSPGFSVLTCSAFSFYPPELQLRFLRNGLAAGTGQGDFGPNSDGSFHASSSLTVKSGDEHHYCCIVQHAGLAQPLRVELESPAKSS
T1 sequence (P61769 21-119 limits assumed, chain 2 of 2): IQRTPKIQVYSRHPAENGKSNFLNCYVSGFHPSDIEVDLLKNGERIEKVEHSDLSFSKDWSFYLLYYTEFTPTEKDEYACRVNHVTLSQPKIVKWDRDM

The assay concerns the target T1, soluble human FcRn complexed with β2-microglobulin (human, UniProt P61769 21-119, limits assumed).
T1 construct: also called hFcRn
The assay is described as follows: Biacore SPR, pH 7.0.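 Further: test antibodies captured on a Protein L chip with human FcRn flowed over as analyte, KD obtained as the ratio of dissociation to association rate constants.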 Background: In SPR one partner is held on a chip, and binding of the other changes the refractive index at the surface.
As usually defined, the Kd is the constant that tells how readily two partners part at equilibrium. A low value points to a tighter complex. Take B1: binding was characterised by a dissociation constant (Kd) of 166 nM.

Take B2: the affinity, expressed as Kd, was 1110 nM. Compared with the last molecule, the Kd is about 6.7-fold higher.

The molecule B3 returned a Kd of 76.3 nM.

Turning to B4, binding was put at a Kd of 176 nM.

In turn, B5 yielded an equilibrium dissociation constant (Kd) of 571 nM.

B6 yielded a Kd of 343 nM.

Consider B7, for which the Kd came to 52.3 nM.

Take B8: the equilibrium dissociation constant (Kd) came to 1280 nM.

For B9, the Kd is 62.4 nM.

For the molecule B10, binding was put at a Kd of 1000 nM.

B11: the dissociation constant (Kd) worked out at 198 nM.

Molecule B12 came in with a dissociation constant Kd of 14.4 nM.

The molecule B13 registered an equilibrium dissociation constant (Kd) of 162 nM.

In turn, B14 gave a Kd of 126 nM.

B15 came in with an equilibrium dissociation constant (Kd) of 177 nM.

With B16, binding was characterised by a dissociation constant (Kd) of 94.6 nM. Against the preceding molecule, the Kd is about 1.9-fold lower.

In the case of B17, the Kd was determined as 152 nM. Against the preceding molecule, the Kd is about 1.6-fold higher.

B18: the affinity, expressed as Kd, was 1140 nM.

B19: the dissociation constant Kd was 211 nM.

B20 had a Kd of 13.4 nM.

For the molecule B21, the Kd was 872 nM.

Molecule B22 registered a Kd of 251 nM.

On to B23, for which the Kd was determined as 251 nM. That is a sub-micromolar value.

B24: the dissociation constant Kd came to 1070 nM.

Turning to B25, the dissociation constant Kd amounted to 1720 nM.

B26: the Kd was determined as 88.1 nM.

Turning to B27, the dissociation constant Kd was 163 nM. This Kd lies about 1.9-fold higher than the previous one.

Take B28: the dissociation constant (Kd) amounted to 151 nM.

B29 registered a Kd of 16.3 nM. This Kd is about 9.3-fold lower than that of the molecule before.

B30 showed a Kd of 78.3 nM.

On to B31, for which the affinity, expressed as Kd, was 62.5 nM.

B32 registered an equilibrium dissociation constant (Kd) of 152 nM.

Molecule B33 gave a dissociation constant Kd of 158 nM.

In turn, B34 came in with an equilibrium dissociation constant (Kd) of 154 nM.

B35 yielded a Kd of 48.5 nM.

On to B36, for which the Kd is 155 nM. Against the preceding molecule, the Kd is about 3.2-fold higher.

B37 had a Kd of 73.8 nM.

Molecule B38 had a dissociation constant Kd of 917 nM. This Kd lies about 12-fold higher than the previous one.

With B39, the equilibrium dissociation constant (Kd) came out at 165 nM. Against the preceding molecule, the Kd is about 5.6-fold lower.

Turning to B40, the Kd came out at 169 nM.

B41 had a Kd of 2810 nM.

Molecule B42 yielded a Kd of 198 nM.

In turn, B43 gave a dissociation constant Kd of 209 nM. The Kd values of the last two molecules are within 1.5-fold of each other.

Regarding B44, the dissociation constant Kd amounted to 71.9 nM.

With B45, the Kd came to 107 nM.

In the case of B46, binding was characterised by a dissociation constant (Kd) of 240 nM.

The molecule B47 showed a Kd of 118 nM. This Kd is about 2-fold lower than that of the molecule before.

B48 gave a Kd of 112 nM.

For the molecule B49, the Kd worked out at 126 nM.

In turn, B50 yielded a dissociation constant Kd of 97.3 nM.

As to B51, the Kd worked out at 288 nM.

In the case of B52, the dissociation constant (Kd) came out at 187 nM.

Turning to B53, binding was characterised by a dissociation constant (Kd) of 69.6 nM.

B54 yielded a Kd of 1160 nM.

With B55, the affinity, expressed as Kd, was 244 nM.

For the origin of these results see patent publication US20200199241A1 (Chugai, published 2020).
